Our source for the Kd values is patent publication EP1224222B1 (ChemoCentryx, Inc., dated 2010).

A word on the Kd: it is the constant that tells how readily two partners part at equilibrium.

This assay deals with T1, human CCX CKR with N-terminal Flag epitope, stably expressed on HEK293 cells (human, UniProt Q9NPB9 1-350).
T1 construct: also called HEK293-CCX CKR cells
T1 sequence: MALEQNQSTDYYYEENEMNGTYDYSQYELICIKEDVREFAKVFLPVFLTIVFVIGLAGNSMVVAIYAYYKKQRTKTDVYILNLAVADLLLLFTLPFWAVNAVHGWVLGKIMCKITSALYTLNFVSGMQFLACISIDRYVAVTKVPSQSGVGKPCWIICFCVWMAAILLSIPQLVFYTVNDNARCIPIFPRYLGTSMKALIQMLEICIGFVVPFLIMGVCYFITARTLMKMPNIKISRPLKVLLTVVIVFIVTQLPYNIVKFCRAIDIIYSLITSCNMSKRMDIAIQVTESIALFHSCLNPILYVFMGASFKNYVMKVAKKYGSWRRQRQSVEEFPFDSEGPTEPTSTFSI
As to the kind of experiment: radioligand binding competition on CCX CKR stable transfectants (similar experiments).

B1: murine CTACK (ligand, UniProt Q9Z1X0 26-120, looked up)
chain: LPLPSSTSCCTQLYRQPLPSRLLRRIVHMELQEADGDCHLQAVVLHLARRSVCVHPQNRSLARWLERQGKRLQGTVPSLNLVLQKKMYSHPQQQN
notes: also called mCTACK; CCL27
In the case of B1, the dissociation constant Kd is about 9 nM.
